The results in this text go back to publication PMC10147376.

The experiment addresses Flotillin A (FloA) tagged with hexa-histidine (floA-6xHis) (S. aureus Newman). The experiment in a line: pull-down; Ni-NTA (IMAC) affinity chromatography of S. aureus Newman membranes solubilised in 50 mM Tris HCl pH 8, 250 mM NaCl, 1% DDM, 4°C; FloA-His held, IsdF-3xFLAG in the 50 mM imidazole eluate detected by anti-FLAG blot; control strain with untagged FloA WT set to 1; called co-immunoprecipitation by the paper.

Sequence of Flotillin A (FloA) tagged with hexa-histidine (floA-6xHis) (S. aureus Newman) (A6QHB6 whole entry): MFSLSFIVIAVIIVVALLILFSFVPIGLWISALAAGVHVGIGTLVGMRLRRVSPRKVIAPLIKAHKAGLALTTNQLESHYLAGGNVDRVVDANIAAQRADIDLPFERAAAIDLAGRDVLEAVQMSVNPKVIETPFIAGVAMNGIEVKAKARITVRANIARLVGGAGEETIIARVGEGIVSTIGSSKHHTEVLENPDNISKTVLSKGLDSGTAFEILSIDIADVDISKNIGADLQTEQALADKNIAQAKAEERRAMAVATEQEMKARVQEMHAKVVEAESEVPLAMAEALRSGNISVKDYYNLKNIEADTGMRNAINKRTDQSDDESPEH

“IsdF with a triple FLAG tag (pRB474:isdF-3xFLAG) (from UniProt Q2FHU7 1-322) (natural protein)” had a fold IsdF-3xFLAG signal in the Ni-NTA eluate against the strain with untagged FloA WT (set to 1) of 3 fold.
